# In the RNAGym collection of RNA variant scans (doi:10.7554/elife.80360):
# B1: HDV Ribozyme (parent)
# chain: GGCCGGCAUGGUCCCAGCCUCCUCGCUGGCGCCGGCUGGGCAACAUUCCGAGGGGACCGUCCCCUCGGUAAUGGCGAAUGGGACCCA
# Variants of: B1
# Assay: self-cleavage, relative activity (ratio to wild type); higher = more cleavage; co-transcriptional
row,Variant,self-cleavage
1,G6A A77C,0.178
2,G5U A77U,0.158
3,G5U A77C,0.192
4,G5C U72C,0.123
5,G5U G52A,0.283
6,G5U G52C,0.475
7,G5U G52U,0.277
8,G5U G25C,0
9,G5U G25U,0
10,G6A C26U,0.787
11,G5U C48A,0.712
12,G5C U46A,0.0639
13,G5C U46C,0.26
14,G5C U46G,0.0573
15,G5U G17U,0.18
16,G6A C13U,0.145
17,G5U C30A,0.0462
18,G5U G81U,0.166
19,G5U G50C,0.192
20,G5C C58U,0.293
21,G5C G80C,0.17
22,G5U U72C,0.119
23,G5U U72G,0.277
24,G5U U72A,0.128

row,Variant,self-cleavage
1,G6A C14U,0.87
2,G6A C33A,0.0678
3,G6A C33U,0.172
4,G5C C32U,0.0573
5,G5C C32G,0
6,G5U G54A,0.314
7,G5U G80U,0.0405
8,G5C A87U,0.175
9,G5C A87C,0.268
10,G6A A83G,0.302
11,G6A A83C,0.291
12,G5U G28C,0.0554
13,G5C G29U,0
14,G5U C66G,0.554
15,G5U U47C,0.185
16,G6A C7A,0.185
17,G6A C7G,0.208
18,G6A A70G,0.629
19,G5U G53U,0.268
20,G5U G53C,0.489
21,G5U G53A,0.332
22,G5C C84A,0.142
23,G5U A16C,0.383
24,G5U A16U,0.0978

row,Variant,self-cleavage
1,G5C A8C,0
2,G6A C66A,0.724
3,G6A C66U,0.521
4,G5U C33G,0.65
5,G6A,0.726
6,G5U U27G,0.665
7,G5U U27A,0.443
8,G5C U12A,0.0791
9,G5C U12G,0.0831
10,G5U G55C,0.465
11,G5C C30U,0.128
12,G5C G74U,0.161
13,G5C G74C,0.0978
14,G5U C61G,0.262
15,G5U C61A,0.399
16,G5U G10C,0.462
17,G5U G10U,0.181
18,G6A A51U,0.778
19,G5C A56C,0
20,G5U A71C,0
21,G5U A71U,0.185
22,G5C C15G,0.249
23,G5U C49A,0.415
24,G5U C49U,0.791

row,Variant,self-cleavage
1,G5C U20C,0.0875
2,G6A A42G,0
3,G5U C14U,0.612
4,G5C G50U,0.0361
5,G5U C57A,0.383
6,G6A A45U,0.486
7,G5C G53A,0.162
8,G5U C36A,0.208
9,G5U C58U,0.277
10,G5U C58G,0.262
11,G5C G76A,0.415
12,G5U G6A,0.208
13,G5U G39A,0.217
14,G5U G11A,0.18
15,G5U G11U,0.156
16,G5C C49G,0.192
17,G5C G31U,0.0405
18,G5U A45U,0.277
19,G6A C64A,0.869
20,G6A C64G,0.604
21,G6A C19A,0.0346
22,G5U U65A,0.453
23,G5U A42C,0.178
24,G5U G82U,0.128

row,Variant,self-cleavage
1,G5U G82A,0.185
2,G5U U46A,0.119
3,G5C C57U,0.185
4,G5C G40U,0.104
5,G5U A43C,0
6,G5C C61U,0
7,G5C C61G,0.287
8,G5U G59A,0.529
9,G5U A51C,0.277
10,G5U A83G,0.0573
11,G5C C48U,0.308
12,G5C A78U,0.0755
13,G5C U60C,0
14,G5C U60A,0.166
15,G5C U37C,0.161
16,G5C G6U,0.185
17,G6A A87U,0.602
18,G5U U12A,0.332
19,G5U U12C,0.0831
20,G6A A16U,0.446
21,G6A A16C,0.111
22,G6A C41U,0.431
23,G6A C41A,0.326
24,G6A C41G,0.107

row,Variant,self-cleavage
1,G5U C18A,0.0875
2,G5C C26U,0.489
3,G5U G73C,0.249
4,G6A C61U,0.899
5,G5U C22U,0.158
6,G5U C75U,0.0573
7,G5U C84G,0.262
8,G5C C62U,0.222
9,G5C C62A,0.0665
10,G5U U60A,0.447
11,G5U U60C,0.604
12,G5C G82C,0
13,G6A A78C,0.0615
14,G6A A78G,0.554
15,G5C A83U,0
16,G5U G34U,0.0426
17,G5C G59U,0.128
18,G6A A8G,0.554
19,G5U U20C,0
20,G5C G54A,0.0831
21,G5U,0.469
22,G5U G76C,0.227
23,G5U G29U,0.0594
24,G5C C44A,0

row,Variant,self-cleavage
1,G5C U27G,0.302
2,G5C U9G,0.111
3,G5C U9C,0.312
4,G6A C44G,0.111
5,G5C G11A,0.0449
6,G5U A56U,0.431
7,G5U A56C,0.831
8,G5U U79G,0
9,G5C G81C,0
10,G5C G81U,0.131
11,G5C A43U,0.0489
12,G5C C13G,0.262
13,G5C A16U,0.237
14,G5C A16G,0.145
15,G5C G35U,0.0308
16,G5C G35A,0.113
17,G5C C64A,0.178
18,G5C G52A,0.252
19,G5C G52C,0.095
20,G6A C24G,0.108
21,G5U C86G,0.26
22,G5U C7U,0
23,G5U C7G,0.104
